Biological target: TEMPOL-122-αS (N122C α-synuclein spin-labelled at position 122) (UniProt P37840)
Experiment: CW-EPR titration (site-directed spin labelling); apparent; TEMPOL-122-αS kept at 50 μM, poly-cation titrated at increasing molar ratios; LLPS buffer without crowder (no PEG); 25 °C; band III/band II amplitude fitted to an approximate model with n identical and independent binding sites

With poly-L-lysine of 100 residues (peptide) the Kd was 5 µM.
